Assay results published in the Immune Epitope Database (IEDB).
Values belong to the sequence of their own block, whether it stands above or below them.

Key:
[1] = target: HLA-B*07:02; experiment: IEDB peptide-MHC binding, purified MHC/competitive/fluorescence; filed as Kd, often an IC50 or EC50 that approximates it; ≥ and ≤ were set here for values at or beyond the usual limits of such assays
[2] = target: HLA-B*51:01; experiment: as above; details: source organism: Escherichia coli 536
[3] = target: HLA-B*08:01; experiment: as above; details: source organism: Escherichia coli 536
[4] = target: HLA-A*02:12; experiment: IEDB peptide-MHC binding, purified MHC/direct/fluorescence; filed as Kd, often an IC50 or EC50 that approximates it; ≥ and ≤ were set here for values at or beyond the usual limits of such assays
[5] = target: HLA-A*02:16; experiment: as above
[6] = target: HLA-A*02:19; experiment: as above
[7] = target: HLA-A*03:01; experiment: as above
[8] = target: HLA-A*26:01; experiment: as above
[9] = target: HLA-B*18:01; experiment: as above
[10] = target: HLA-B*46:01; experiment: as above
[11] = target: HLA-B*57:01; experiment: as above
[12] = target: HLA-A*24:03; experiment: as above
[13] = target: HLA-B*51:01; experiment: as above; details: source organism: Encephalitozoon cuniculi GB-M1
[14] = target: HLA-B*27:03; experiment: as above
[15] = target: HLA-B*15:01; experiment: as above
[16] = target: HLA-A*01:01; experiment: as above
[17] = target: HLA-B*48:01; experiment: as above
[18] = target: HLA-A*11:01; experiment: as above
[19] = target: HLA-B*40:01; experiment: as above
[20] = target: HLA-B*39:01; experiment: as above
[21] = target: HLA-B*15:17; experiment: as above
[22] = target: HLA-B*27:05; experiment: as above
[23] = target: HLA-A*69:01; experiment: as above
[24] = target: HLA-A*31:01; experiment: as above
[25] = target: HLA-B*58:01; experiment: as above
[26] = target: HLA-B*08:02; experiment: as above
[27] = target: HLA-A*02:01; experiment: IEDB peptide-MHC binding, purified MHC/competitive/fluorescence; filed as Kd, often an IC50 or EC50 that approximates it; ≥ and ≤ were set here for values at or beyond the usual limits of such assays
[28] = target: HLA-A*02:06; experiment: as above
[29] = target: HLA-A*68:02; experiment: IEDB peptide-MHC binding, purified MHC/direct/fluorescence; filed as Kd, often an IC50 or EC50 that approximates it; ≥ and ≤ were set here for values at or beyond the usual limits of such assays; details: source organism: Yersinia enterocolitica subsp. enterocolitica 8081
[30] = target: HLA-A*02:01; experiment: as above; details: source organism: Yersinia enterocolitica subsp. enterocolitica 8081
[31] = target: HLA-A*02:11; experiment: as above; details: source organism: Yersinia enterocolitica subsp. enterocolitica 8081
[32] = target: HLA-A*02:03; experiment: as above; details: source organism: Yersinia enterocolitica subsp. enterocolitica 8081
[33] = target: HLA-A*01:01; experiment: IEDB peptide-MHC binding, purified MHC/competitive/fluorescence; filed as Kd, often an IC50 or EC50 that approximates it; ≥ and ≤ were set here for values at or beyond the usual limits of such assays; details: source organism: Yersinia pestis Nepal516
[34] = target: HLA-A*03:01; experiment: as above; details: source organism: Yersinia pestis Nepal516
[35] = target: HLA-B*15:01; experiment: as above; details: source organism: Yersinia pestis Nepal516
[36] = target: HLA-A*69:01; experiment: as above; details: source organism: Vaccinia virus Copenhagen
[37] = source organism: Encephalitozoon cuniculi GB-M1
[38] = source organism: Burkholderia mallei
[39] = source organism: Burkholderia mallei ATCC 23344
[40] = source organism: Burkholderia mallei NCTC 10229
[41] = source organism: Yersinia enterocolitica subsp. enterocolitica 8081
[42] = source organism: Mycobacterium tuberculosis
[43] = source organism: Vaccinia virus Copenhagen

Kd ([1]; source organism: Escherichia coli 536): 196 nM
Kd [2]: 309 nM
Kd [3]: 398 nM
Sequence: HPYKIPATV

Kd [4, 37]: ≥ 20 µM
Kd [5, 37]: ≥ 20 µM
Kd [6, 37]: ≥ 20 µM
Kd [7, 37]: ≥ 20 µM
Kd [8, 37]: ≥ 20 µM
Kd [9, 37]: ≥ 20 µM
Kd [10, 37]: ≥ 20 µM
Kd [11, 37]: ≥ 20 µM
Kd [12, 37]: ≥ 20 µM
Kd [13]: 2920 nM
Kd [14, 37]: ≥ 20 µM
Kd [15, 37]: ≥ 20 µM
Sequence: HPYVFCALL

Sequence: IYDFYNAEY
Kd [16, 38]: 1760 nM
Kd [17, 38]: ≥ 20 µM
Kd [18, 38]: ≥ 20 µM
Kd [7, 38]: ≥ 20 µM
Kd [19, 38]: ≥ 20 µM
Kd [8, 39]: 0.091 µM
Kd [20, 39]: ≥ 20 µM
Kd [21, 38]: 5090 nM
Kd [22, 38]: ≥ 20 µM
Kd [23, 38]: ≥ 20 µM
Kd [24, 38]: ≥ 20 µM
Kd [25, 38]: ≥ 20 µM
Kd [11, 38]: ≥ 20 µM
Kd [26, 39]: ≥ 20 µM
Kd [15, 38]: ≥ 20 µM
Kd [27, 40]: 138 nM
Kd [28, 40]: 53.4 nM

Sequence: KSRQGDTKV
Kd [29]: ≥ 20 µM
Kd [4, 41]: ≥ 20 µM
Kd [5, 41]: ≥ 20 µM
Kd [6, 41]: ≥ 20 µM
Kd [7, 41]: ≥ 20 µM
Kd [8, 41]: ≥ 20 µM
Kd [30]: ≥ 20 µM
Kd [20, 41]: ≥ 20 µM
Kd [9, 41]: ≥ 20 µM
Kd [21, 41]: 280 nM
Kd [23, 41]: ≥ 20 µM
Kd [10, 41]: ≥ 20 µM
Kd [11, 41]: ≥ 20 µM
Kd [12, 41]: ≥ 20 µM
Kd [14, 41]: ≥ 20 µM
Kd [31]: ≥ 20 µM
Kd [15, 41]: ≥ 20 µM
Kd [32]: ≥ 20 µM

Sequence: LPSWLLAPV
Kd ([1]; source organism: Salmonella enterica subsp. enterica serovar Typhi): 66 nM

Sequence: NTLGITHLY
Kd [33]: 44.8 nM
Kd [34]: ≥ 20 µM
Kd [35]: 3.02 µM

Sequence: SIYYTLVRM
Kd [4, 42]: ≥ 20 µM
Kd [6, 42]: ≥ 20 µM
Kd [8, 42]: ≥ 20 µM
Kd [20, 42]: ≥ 20 µM
Kd [9, 42]: ≥ 20 µM
Kd [21, 42]: 256 nM
Kd [10, 42]: ≥ 20 µM
Kd [11, 42]: ≥ 20 µM
Kd [14, 42]: ≥ 20 µM
Kd [15, 42]: ≥ 20 µM

Sequence: YKDANISMY
Kd ([16]; source organism: Cowpox virus): ≥ 20000 nM
Kd ([17]; source organism: Cowpox virus): ≥ 20 µM
Kd ([18]; source organism: Cowpox virus): ≥ 20 µM
Kd ([7]; source organism: Cowpox virus): ≥ 20 µM
Kd ([19]; source organism: Cowpox virus): ≥ 20 µM
Kd ([8]; source organism: Variola virus): ≥ 20 µM
Kd ([21]; source organism: Cowpox virus): ≥ 20000 nM
Kd ([22]; source organism: Cowpox virus): ≥ 20 µM
Kd ([10]; source organism: Cowpox virus): ≥ 20 µM
Kd ([24]; source organism: Cowpox virus): ≥ 20 µM
Kd ([25]; source organism: Cowpox virus): ≥ 20 µM
Kd ([11]; source organism: Cowpox virus): ≥ 20 µM
Kd ([26]; source organism: Variola virus): ≥ 20 µM
Kd ([15]; source organism: Cowpox virus): ≥ 20 µM
Kd [27, 43]: 113 nM
Kd [36]: 1040 nM
Kd [28, 43]: 107 nM
